Measurements published in publication PMC5473912, “Regulation of sub-compartmental targeting and folding properties of the Prion-like protein Shadoo” (Scientific Reports, 2017).

Target: T1, Calreticulin (CRT), endogenous mouse (mouse (endogenous in GT1), UniProt P14211 18-416)
T1 construct: Calreticulin (CRT), mouse, immunoprecipitated with anti-CRT antibody; also called ER chaperone Calreticulin; source: endogenous, GT1 lysate
T1 sequence (looked up): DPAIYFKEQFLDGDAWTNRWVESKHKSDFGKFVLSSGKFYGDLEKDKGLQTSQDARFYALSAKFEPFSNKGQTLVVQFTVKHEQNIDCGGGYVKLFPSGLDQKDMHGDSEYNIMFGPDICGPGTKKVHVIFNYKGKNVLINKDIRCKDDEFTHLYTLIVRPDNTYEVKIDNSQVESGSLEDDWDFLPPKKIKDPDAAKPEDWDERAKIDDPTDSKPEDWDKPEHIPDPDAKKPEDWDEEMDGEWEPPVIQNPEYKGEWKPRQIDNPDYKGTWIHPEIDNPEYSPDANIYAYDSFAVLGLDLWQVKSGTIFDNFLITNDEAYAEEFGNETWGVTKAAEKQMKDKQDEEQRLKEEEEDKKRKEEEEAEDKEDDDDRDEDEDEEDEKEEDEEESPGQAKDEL
Assay: co-IP; Calreticulin immunoprecipitated from GT1 lysates (JS buffer, 1% TX-100, 150 mM NaCl, pH 7.5) with anti-CRT Ab and protein A-Sepharose overnight at 4 °C; Sho revealed by Western blot with SPRN-R12; cells under control conditions or cholesterol depletion (βCD 10 mM, 1 h)
Settings: partners not purified

B1: Shadoo (Sho), mature fully glycosylated ~22 kDa isoform, endogenous mouse (natural protein, mouse (endogenous in GT1), UniProt Q8BWU1 25-122, looked up)
chain: KGGRGGARGSARGVRGGARGASRVRVRPAPRYGSSLRVAAAGAAAGAAAGVAAGLATGSGWRRTSGPGELGLEDDENGAMGGNGTDRGVYSYWAWTSG
modifications: fully N-glycosylated (complex-glycosylated)
notes: Shadoo (Sho, SPRN), mouse, the mature fully glycosylated isoform that migrates at ~22 kDa; also called mature Sho; mature glycosylated Sho; source: endogenous, GT1 lysate
fold increase in the immunocomplex upon cholesterol depletion against control: ~3 fold
